Results on six compounds are retold here after patent US8377889B2, “Adiponectin receptor fragments and methods of use” (Siemens Healthcare Diagnostics Inc., priority 2007, dated 2013).

The nature of series [1]: Plasma ECM32 (AdipoR1) level in normal and diabetic rats. Type of series: in vivo. The settings on record: rat, 2 mg/kg, 120 min. On the procedure: The effect of ECM32 (SEQ ID NO:1) on the plasma adiponectin and ECM32 levels in normal and diabetic rats was evaluated. The peptide was injected at 2 mg/kg along with a control group.
The target in the next series is ADAM-17 (Homo sapiens, UniProt P78536). Description: Inhibition of ADAM-17 (TACE) activity. Format: biochemical. The conditions noted are these: for ADAM 17 inhibition: Example 9, Table 3. The method, then:
(§1) The cleavage enzymes for ECM32 are also potential therapeutic targets. ECM32 sequence at the cleavage site was matched to Elastase (X-VV) and ADAM17 (X-VVAA) as potential enzymes (proteases) able to cleave or bind ECM32. The peptides of SEQ ID NO:1 (ECM32) and SEQ ID NO:2 (ECM30) were tested at levels of 0 mg/L, 12.5 mg/L, 25 mg/L, and 50 mg/L for their effect on cleavage enzymes.
The effect of ECM32 (SEQ ID NO:1), ECM30 (SEQ ID NO:2), ECM25 (SEQ ID NO:5), ECM10 (SEQ ID NO:6), ECM12 (SEQ ID NO:7), and ECM9 (SEQ ID NO:8) on ADAM-17 activity was evaluated.

In series [2] the target is T1, insulin degradation enzyme (IDE) (Homo sapiens, UniProt P14735). Description: Inhibition of IDE activity. The conditions noted are these: Example 9, Table 3. Format: biochemical.
A further series deals with normal rats. Description: Plasma insulin testing in normal rats. Type of series: in vivo, rat. On the procedure: The peptides of SEQ ID NO:1 (ECM32) and SEQ ID NO:2 (ECM30) were tested by treating normal rat groups of 6 to 8 animals at 2 mg/mL in saline intravenously and compared to an untreated control group (0.9% saline solution only). All three groups were fasted on Day 0. Fasted plasma glucose and insulin were measured on Day 1 at 0, 30, 60, 90, and 120 minutes post glucose dose (5 mL/kg). Plasma levels of ECM30 and ECM32 were also measured. Plots of the data are shown in FIG. 1 and FIG. 2, for the insulin level in ng/mL and glucose level in mg/dL, respectively, as a function of time.

Series [3] concerns the target T1, insulin degradation enzyme (IDE). Put plainly: Inhibition of IDE activity. Type of series: biochemical. The conditions noted are these: Example 8; 0-50 μg/ml for ECM32, 0-100 μg/ml for ECM30. On the procedure:
The effect of ECM32 (SEQ ID NO:1) and ECM30 (SEQ ID NO:2) on IDE activity over time was evaluated at four different dose levels (0, 12.5, 25, and 50 μg/ml for ECM32 and 0, 25, 50, and 100 μg/ml for ECM30). The results are shown in FIG. 9 for ECM32 (SEQ ID NO:1) and FIG. 10 for ECM30 (SEQ ID NO:2). […]

The test system of the next series is diabetic rats. Description: Plasma insulin testing in diabetic rats. Type of series: in vivo, rat. The conditions noted are these: 2 mg/mL and 10 mg/mL in saline intravenously. On the procedure:
The peptide of SEQ ID NO:2 (ECM30) was tested by treating diabetic rat groups of 8 animals at 2 mg/mL and 10 mg/mL in saline intravenously and compared to a control group (bovine serum albumin in saline). All three groups were fasted on Day 0. Fasted plasma glucose and insulin were be measured on Day 1 at 0, 30, 60, 90, and 120 minutes post glucose dose. Plots of the data are shown in FIG. 3 and FIG. 4, for the insulin level and % of pre-dose glucose in ng/ml, respectively, as a function of time.

In the next series the test system is normal and diabetic rats. Description: Effect on plasma glucose level in normal and diabetic rats. Format: in vivo, rat. The conditions noted are these: injected at 2 mg/kg. On the procedure:
The effect of ECM32 (SEQ ID NO:1) and ECM30 (SEQ ID NO:2) on the plasma glucose levels in normal and diabetic rats was evaluated. The peptides were injected at 2 mg/kg along with a control group. […] This could be due to ADAM-17 cleavage of ECM30 into IDE inhibitory forms in vivo.

In another series the test system is Elastase. Put plainly: Elastase inhibition. The conditions noted are these: Example 4; 0, 12.5, 25, 50 mg/L. Type of series: biochemical. The method, then: as §1

Entries after “also recorded” stand apart in the source; their conditions may differ. Like-named read-outs stand apart in the source and are kept apart here. Residues, ends and D or L forms follow the SMILES beside them.

Sequence of ADAM-17 (P78536 215-824, species assumed): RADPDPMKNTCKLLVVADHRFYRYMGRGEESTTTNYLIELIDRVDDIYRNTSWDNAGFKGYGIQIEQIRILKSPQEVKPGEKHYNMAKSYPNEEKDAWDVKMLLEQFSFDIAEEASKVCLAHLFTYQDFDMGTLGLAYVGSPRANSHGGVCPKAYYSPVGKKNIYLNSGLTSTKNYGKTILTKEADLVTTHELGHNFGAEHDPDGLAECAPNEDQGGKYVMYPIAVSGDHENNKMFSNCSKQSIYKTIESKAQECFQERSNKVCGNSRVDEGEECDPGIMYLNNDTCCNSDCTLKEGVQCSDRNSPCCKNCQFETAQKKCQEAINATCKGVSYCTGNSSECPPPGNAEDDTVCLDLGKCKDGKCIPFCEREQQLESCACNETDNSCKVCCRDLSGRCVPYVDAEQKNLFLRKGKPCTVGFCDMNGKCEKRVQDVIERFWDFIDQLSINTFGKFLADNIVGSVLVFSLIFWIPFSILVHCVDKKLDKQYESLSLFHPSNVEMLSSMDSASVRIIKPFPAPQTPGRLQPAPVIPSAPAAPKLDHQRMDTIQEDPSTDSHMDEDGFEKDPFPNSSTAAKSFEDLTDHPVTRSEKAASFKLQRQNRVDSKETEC

On to `CC(C)C[C@H](NC(=O)[C@H](CC(C)C)NC(=O)[C@@H](NC(=O)[C@H](CC(=O)O)NC(=O)[C@H](CC(=O)O)NC(=O)[C@@H](NC(=O)[C@H](CS)NC(=O)CNC(=O)CNC(=O)[C@H](CCC(=O)O)NC(=O)[C@H](CC(C)C)NC(=O)CNC(=O)[C@H](Cc1ccc(O)cc1)NC(=O)[C@H](CCCNC(=N)N)NC(=O)[C@H](Cc1ccccc1)NC(=O)[C@H](CCC(=O)O)NC(=O)[C@H](CCC(N)=O)NC(=O)[C@H](CC(C)C)NC(=O)[C@H](CC(N)=O)NC(=O)[C@H](CO)NC(=O)[C@@H](NC(=O)CNC(=O)[C@H](Cc1ccc(O)cc1)NC(=O)[C@H](Cc1ccccc1)NC(=O)[C@H](Cc1c[nH]cn1)NC(=O)[C@@H](NC(=O)[C@H](Cc1ccccc1)NC(=O)[C@H](C)NC(=O)[C@H](C)NC(=O)[C@H](C)NC(=O)[C@@H](NC(=O)[C@@H](N)C(C)C)C(C)C)C(C)C)C(C)C)[C@@H](C)O)[C@@H](C)O)C(=O)O` [ECM32] (H-VVAAAFVHFYGVSNLQEFRYGLEGGCTDDTLL-OH; N-terminus and C-terminus assumed), for which the level at 2 h in series [1] (Diabetic Rats (ZDF), read-out: ECM32 (AdipoR1) in Plasma, Mean ± SD) was 95.1 ± 36.1 ng/mL; in series [1] (Normal Rats (SD)), 113 ± 18.5 ng/mL.

Take “HFYGVSNLQEFR [ECM12, ADIPOR1 fragment, 12 amino acids]”: the “ADAM 17 inhibition” value in the series with ADAM-17 is “no significant effect on ADAM-17 activity; also recorded: negative”. The IDE inhibition entry in series [2] is reported as “inhibit IDE activity; also recorded: positive”.

As for “HFYGVSNLQEFRYGLEGGCTDDTLL [ECM25, ADIPOR1 C-terminal fragment, 25 amino acids]”, the “ADAM 17 inhibition” value in the series with ADAM-17 is on record as “no significant effect on ADAM-17 activity”; in the series with ADAM-17 (listed as ECM 25) it was “negative”. Moreover, the IDE inhibition result in series [2] is given as “inhibit IDE activity”; in series [2] (listed as ECM 25), “positive”.

Regarding “HVLVVAAAFVHFYGVSNLQEFRYGLEGGCT (listed as Homo Sapiens) [ECM30, ADIPOR1 fragment, 30 amino acids, uncleaved form]”, the “plasma insulin compared to the control group” value in the series on normal rats (2 mg/mL in saline intravenously, 0-120 min post glucose dose) was “marked elevation in the plasma insulin”. Further, the “insulin peak relative to control” value with normal rats (30 minute time point) is reported as “twice that observed for the control”. Besides, the “inhibitory effect on ADAM-17 (% TACE control activity)” value with ADAM-17 (Example 4, 0, 12.5, 25, 50 mg/L) is “did not significantly inhibit”. Also, the “ADAM 17 inhibition” value was “no significant effect on ADAM-17 activity” with ADAM-17 and “negative” in the series with ADAM-17 (listed as ECM 30). Besides, the “IDE activity over time” value in series [3] is listed as “no significant effect on IDE over time”. The plasma insulin result in the series on diabetic rats is reported as “did not increase insulin”. In the series with normal and diabetic rats, the plasma glucose levels entry is on record as “lowered glucose levels, but at longer time points”. Besides, the IDE inhibition result in series [2] is on record as “no significant effect on IDE”; in series [2] (listed as ECM 30), “negative”. Further, in the series with Elastase, the elastase inhibition entry is given as “Neither ECM30 nor ECM32 showed elastase inhibition”.

In the case of “SGCTDDTLL [ECM9, ADIPOR1 fragment, 9 amino acids]”, the entries for the “ADAM 17 inhibition” value with ADAM-17 and in the series with ADAM-17 (listed as ECM 9) were “no significant effect on ADAM-17 activity” and “negative”, respectively. Moreover, the IDE inhibition result in series [2] is reported as “inhibit IDE activity”; in series [2] (listed as ECM 9), “positive”.

On to “VVAAAFVHFY [ECM10, ADIPOR1 fragment, 10 amino acids]”, for which the “ADAM 17 inhibition” value with ADAM-17 is “no significant effect on ADAM-17 activity”; in the series with ADAM-17 (listed as ECM 10) it was “negative”. For the same compound, the IDE inhibition result in series [2] is listed as “inhibit IDE activity”; in series [2] (listed as ECM 10), “positive”.
